The test system of data set [1] is previously untreated locally advanced or metastatic non-squamous NSCLC. Nature of the data set: Phase II (PPHM 1001) paclitaxel/carboplatin with or without bavituximab. In kind it is in vivo, human. To be noted: functional β2GPI ≥200 μg/mL; bavituximab given with paclitaxel/carboplatin.
Data set [2] concerns PS. As to conditions: in the presence of serum; cited from earlier work.
A short description of data set [3]: ELISA binding to neutral phospholipids. As to conditions: standard ELISA. A general note: An ELISA detects its analyte on a solid surface through an enzyme-linked reagent.
For data set [4] the following is noted: irrespective of the presence of serum; cited from earlier work.
Another data set deals with tumors. To be noted: syngeneic and xenogeneic tumor models; cited from earlier work.
Data set [5] deals with PS. Nature of the data set: ELISA binding to PS-coated plates. To be noted: phospholipid-coated ELISA plates. As to the method:
The 3G4 antibody was produced by immunizing mice with autologous, PS-positive endothelial cells, as reported in Ran et al., 2005. The 3G4 antibody was tested for binding to PS in a standard ELISA in the presence and absence of serum, and was initially characterized as being “serum-independent”, i.e., an antibody that binds to PS in the absence of serum.
In a follow-on study, the binding of the 2aG4 antibody to PS was tested in an ELISA in the presence of varying concentrations of human β2GPI.
These included binding to PS in ELISAs, FACS analyses using PS-positive cells and functional assays in the form of an NFAT surrogate ADCC bioassay (Larson et al., 2013).

The target of a further data set is T1, β2GPI (Homo sapiens, UniProt P02749).
T1 sequence (P02749 20-345): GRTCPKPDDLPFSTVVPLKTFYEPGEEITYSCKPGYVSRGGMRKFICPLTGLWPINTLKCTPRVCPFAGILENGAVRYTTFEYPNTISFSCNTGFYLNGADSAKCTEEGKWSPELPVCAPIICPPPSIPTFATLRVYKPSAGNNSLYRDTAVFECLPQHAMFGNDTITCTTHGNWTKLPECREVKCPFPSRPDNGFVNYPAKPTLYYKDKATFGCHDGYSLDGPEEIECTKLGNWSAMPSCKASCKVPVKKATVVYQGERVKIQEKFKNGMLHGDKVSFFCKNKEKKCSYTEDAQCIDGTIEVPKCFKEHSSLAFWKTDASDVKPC
Briefly: Antibody binding to β2GPI (domain mapping). An excerpt: In summary, it was shown that the 3G4 antibody binds to β2GPI at domain II and that the lipid binding region of β2GPI domain V is required for co-binding of 3G4 (and ch3G4) and β2GPI to PS exposed on cells. […] Accordingly, antibody and β2GPI co-bind to PS exposed on the outer surfaces of membranes, such as occurs on activated endothelial cells, tumor vascular endothelial cells and tumor cells, as well as on virally infected cells.

In data set [6] the test system is ABAE cells with exposed PS. Briefly: Binding of antibody-β2GPI complexes to PS on cells. It is filed as cell-based. To be noted: first study. As to the method: In analyzing the β2GPI levels required for binding of 3G4-β2GPI complexes to PS on cells, the maximum relative binding in a first study occurred at an antibody concentration of 80 nM, which is a β2GPI to antibody ratio of only 0.5.

The next data set deals with T2, functional β2GPI (Homo sapiens, UniProt P02749).
T2 construct: Samples of β2GPI purified from human plasma and recombinant human β2GPI were both treated with plasmin; from tissue; host or cells: human plasma / serum
T2 sequence (P02749 20-345): T1 sequence (P02749 20-345)
Briefly: Functional β2GPI assay (PS-coated plate, bavituximab-HRP). In kind it is binding. To be noted: PS-coated plate, bavituximab-HRP; nicked vs intact β2GPI samples. An excerpt:
The following particular materials and equipment were used in the assay to generate the Results presented in this example under Sections B1 and B2. Materials: 96-well medium binding flat bottom plates (Greiner BioOne, cat #655001); 96-well non-binding round bottom plates (Costar, cat #3605); hexane (Sigma, cat #32293); PS antigen (Sigma, cat #P6641); ovalbumin (Sigma, cat #A5503); chromogenic substrate, tetramethylbenzidine (TMB), (KPL, cat #50-76-00); 2M H2SO4 (Fisher, Cat #SA818-4); plate covers (Fisher 015-027-11); adhesive plate sealer (VWR 232701); reagent reservoirs (VistaLab Cat #3054-1000). 1.5 mL microcentrifuge tubes, 50 mL conical tubes and 15 mL conical tubes were also utilized.
The Wash Buffer is IX phosphate-buffered saline (PBS) and the Blocking Buffer is 2% Ovalbumin in IX PBS.
The bavituximab antibody was conjugated to horseradish peroxidase (HRP) to prepare a bavituximab-HRP detection agent for use in the assay. The conjugation was performed using EZ-Link® Plus Activated Peroxidase (Thermo Scientific, Cat #31487) following the procedure for conjugating activated peroxidase to an antibody at pH 7.2 provided by the manufacturer. […] This was added to 1 mg of lyophilized EZ-Link Plus activated peroxidase to reconstitute. Immediately following reconstitution, 10 μL of 5M sodium cyanoborohydride solution was added to the reaction and incubated for 1 hour at room temperature. Once incubation was completed, 20 μL of quenching buffer was added and incubated for 15 minutes at room temperature. Conjugated bavituximab-HRP (1 mg/mL) was stored at 4° C. for up to 4 weeks.
The ELISA plates were coated with the PS antigen as follows: 5 μg/mL PS antigen was prepared and diluted into 6 mL of hexane in a fume hood with the blower off. 50 μL of PS solution was added to each well using a 12-channel pipette. The fume hood blower was turned back on and the hexane allowed to evaporate for 30-45 minutes, typically 30 minutes.
The PS-coated ELISA plates were blocked as follows: 100 mL per plate of the Blocking Buffer (2% Ovalbumin in IX PBS) was prepared. 200 μL of Blocking Buffer was added to each well using a 12-channel pipette.
The β2GPI standards for the positive control were obtained from Haematologic Technologies, Inc. (HTI; cat #B2G1-0001-C; 1.0 mg/ml) in a buffer of 0.2 M Glycine, 0.15 M NaCl, pH 7.4. […]

The molecule “paclitaxel/carboplatin [reference compound]” registered a mOS in data set [1] of 13.2 months.

B1: 3G4: mouse IgG3 monoclonal PS-targeting antibody, hybridoma ATCC PTA 4545 (antibody, V domains shown)
VH: EVQLQQSGPELEKPGASVKLSCKASGYSFTGYNMNWVKQSHGKSLEWIGHIDPYYGDTSYNQKFRGKATLTVDKSSSTAYMQLKSLTSEDSAVYYCVKGGYYGHWYFDVWGAGTTVTVSSATTTAPSVYPLVP
VL: DIQMTQSPSSLSASLGERVSLTCRASQDIGSSLNWLQQGPDGTIKRLIYATSSLDSGVPKRFSGSRSGSDYSLTISSLESEDFVDYYCLQYVSSPPTFGAGTKLELKRADAAPTVFIFGRIP
Consider B1, for which the “binding to anionic phospholipids (PS, PI, PA, PG, CL)” value with PS [2] is given as “bind strongly to anionic phospholipids”. Further, the “reaction with neutral phospholipids, PC and SM” value in data set [3] is listed as “did not react”. Moreover, in data set [4], the “binding to neutral phospholipids PC, SM or PE” value is reported as “no detectable binding”. Moreover, in the data set on tumors, the anti-tumor effects result was “caused tumor vascular injury, localized thrombosis, tumor necrosis and retarded tumor growth”; the toxicity entry is recorded as “no evidence of toxicity”. The “binding to phospholipids in standard ELISA” value with PS [5] is “bound to PS, CL, PI (phosphatidylinositol), PA (phosphatidic acid) and PG (phosphatidylglycerol)”. For the same molecule, the β2GPI domain bound result in the data set with β2GPI is “bind to β2GPI at domain II”. Besides, in [6], the “antibody concentration at maximum relative binding to PS on cells” value is 80 nM; the “molar ratio of β2GPI to antibody for optimal antibody binding” value was “between 0.125, 0.5 and 2”. For the same molecule, the “β2GPI to antibody ratio at maximum relative binding” value in [6] (antibody 80 nM) was 0.5.

B2: Recombinant Plasmin-free β2GPI (protein, UniProt P02749 20-345, looked up)
Beta-2-glycoprotein 1: T1 sequence (P02749 20-345)
modifications: recombinant, plasmin-free
Regarding B2, the “Conc. (ng/mL) read out in Functional β2GPI Assay” value with functional β2GPI came to 136.42 ng/mL.

B3: Human Plasmin-free β2GPI (protein, UniProt P02749 20-345, looked up)
Beta-2-glycoprotein 1: T1 sequence (P02749 20-345)
modifications: plasmin-free
B3: the “Conc. (ng/mL) read out in Functional β2GPI Assay” value with functional β2GPI was found to be 136.42 ng/mL.

(Values after patent US11571459B2, “Methods for treating cancer using PS-targeting antibodies with immuno-oncology agents” (ONCXERNA THERAPEUTICS, INC., priority 2017, dated 2023).)
